Data on one molecule can be found in patent publication US20210122824A1 (ADAGENE, published 2021).

The target in test [1] is T1, human PD-L1 expressed on cell surface (human, UniProt Q9NZQ7 19-290).
T1 construct: whole, on cells; also called full-length human PD-L1; cell surface PD-L1
The test can be described thus: cell ELISA on HCC827 cells fixed with 4% paraformaldehyde, absorbance at 450 nm. (In general: ELISA stands for enzyme-linked immunosorbent assay.)

The target in test [2] is T2, rat PD-L1-Fc fusion protein (Sino Biological cat #80450-R08H) (rat).
T2 construct: text calls all four immobilized proteins PD-L1-Fc fusion proteins
As to the kind of experiment: SPR (Biacore T200), PD-L1-Fc immobilized (about 500 RU), IgG in solution. (In general: SPR reads the build-up and loss of mass on a sensor chip optically.)

Test [3] addresses T3, rhesus PD-L1-Fc fusion protein (Sino Biological cat #90251-C02H) (rhesus, UniProt F6PJN1 19-239).
T3 construct: not shown: Fc part
The description is as above.

Test [4] addresses T4, human PD-L1-Fc fusion protein (Sino Biological Cat #10084-H02H) (human, UniProt Q9NZQ7 19-239).
T4 construct: bought; not shown: Fc part of the bought fusion
Described as above.

Test [5] has as its target T1, human PD-L1 expressed on cell surface. As to the kind of experiment: flow cytometry on cells expressing human PD-L1 (legend of FIG. 5).
The target is the same in test [6]. The test can be described thus: cell-based or functional assay.
The target in test [7] is T4, human PD-L1-Fc fusion protein (Sino …). The test can be described thus: SPR (Biacore T200), human PD-L1-Fc immobilized, IgG in solution.

T4 sequence (Q9NZQ7 19-239 limits assumed): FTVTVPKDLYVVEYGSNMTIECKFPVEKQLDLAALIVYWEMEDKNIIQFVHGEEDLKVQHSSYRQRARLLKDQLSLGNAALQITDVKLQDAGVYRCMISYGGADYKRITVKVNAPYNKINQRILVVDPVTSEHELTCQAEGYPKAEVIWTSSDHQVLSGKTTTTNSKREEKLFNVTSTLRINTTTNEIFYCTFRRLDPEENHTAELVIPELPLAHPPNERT
T1 sequence (Q9NZQ7 19-290): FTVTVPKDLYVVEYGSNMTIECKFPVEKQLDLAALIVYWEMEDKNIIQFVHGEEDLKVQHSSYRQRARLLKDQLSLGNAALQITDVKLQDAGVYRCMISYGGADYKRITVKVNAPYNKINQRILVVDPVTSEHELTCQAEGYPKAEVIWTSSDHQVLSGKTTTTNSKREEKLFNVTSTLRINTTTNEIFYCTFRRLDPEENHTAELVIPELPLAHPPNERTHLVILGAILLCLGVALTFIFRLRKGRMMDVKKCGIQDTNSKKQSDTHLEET

B1: TY21421 (antibody, V domains shown)
VH: EVQLVESGGGLVQPGGSLRLSCAASGYSISSGYYWGWIRQAPGKGLEWIGIIYPSGGGTNYAQKFQGRVTISRDNSKNTLYLQLNSLRAEDTAVYYCARGGGLGFDYWGQGTLVTVSS
VL: DIQLTQSPSSLSASVGDRVTITCRASQSIPSFLNWYQQKPGKAPKLLIYAASSLQSGVPSRFSGSGSGTDFTLTISSLQPEDFATYYCQHYISWPRQFTFGQGTKVEIKR
notes: IgG1 (wild type) made from Fab B15041, from HEK293F cells
Consider B1, for which the figures for the EC50 in test [1] and in test [5] were 300 pM and ~1000 pM, respectively. For the same molecule, the Kd – broadly, the free concentration of one partner at which half of the binding sites on the other are occupied at equilibrium, for simple one-to-one binding – in test [2] was 20.9 pM; in test [3] it was 1.85 pM; in test [4] it was 6.19 pM; in test [7] it was < 10 pM. Besides, the koff (as a rule, a measure of how fast the partners let go of each other) amounted to 0.000106 s⁻¹ in test [2], 7.27e-06 s⁻¹ in test [3] and 2.97e-05 s⁻¹ in test [4]. For the same molecule, the kon (commonly the second-order rate constant of association) is 5.07e+06 M⁻¹ s⁻¹ in test [2], 3.93e+06 M⁻¹ s⁻¹ in test [3] and 4.8e+06 M⁻¹ s⁻¹ in test [4]. Besides, the “Relative luminescence units (RLU), Promega PD1/PD-L1 reporter gene assay; EC50” value in test [6] was 390 pM.
